Laboratory results from US20220008473A1 (CRISPR THERAPEUTICS, published 2022).

Target: T1, biotinylated recombinant human BCMA (ACROS Cat #BC7-H82F0) (human, UniProt Q02223 1-54, biotinylated (site not stated))
T1 construct: Bought reagent; also called CD269; B-cell maturation antigen
T1 sequence (looked up): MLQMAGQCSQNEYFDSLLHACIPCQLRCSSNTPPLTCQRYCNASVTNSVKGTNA
Assay: flow cytometry of CAR T cells stained with biotinylated recombinant antigen

- binding result: binds
B1: anti-BCMA CAR comprising the amino acid sequence of SEQ ID NO: 86 (other)
chain: QVQLVQSGAELKKPGASVKVSCKASGNTLTNYVIHWVRQAPGQRLEWMGYILPYNDLTKYSQKFQGRVTITRDKSASTAYMELSSLRSEDTAVYYCTRWDWDGFFDPWGQGTTVTVSSGGGGSGGGGSGGGGSEIVMTQSPATLSVSPGERASISCRASQSLVHSNGNTHLHWYQQRPGQAPRLLIYSVSNRFSEVPARFSGSGSGTDFTLTISSVESEDFAVYYCSQTSHIPYTFGGGTKLEIKSAAAFVPVFLPAKPTTTPAPRPPTPAPTIASQPLSLRPEACRPAAGGAVHTRGLDFACDIYIWAPLAGTCGVLLLSLVITLYCNHRNRKRGRKKLLYIFKQPFMRPVQTTQEEDGCSCRFPEEEEGGCELRVKFSRSADAPAYQQGQNQLYNELNLGRREEYDVLDKRRGRDPEMGGKPRRKNPQEGLYNELQKDKMAEAYSEIGMKGERRRGKGHDGLYQGLSTATKDTYDALHMQALPPR
notes: Chimeric antigen receptor on engineered human T cells
